Assay results from PMC3493456.

Tests used:
[1] = molecular target: DNA polymerase beta P242R (rs3136797) (Homo sapiens, UniProt P06746 1-335, P242R); assay: EMSA; EMSA as described previously (ref 34); buffer, salt, pH and temperature not given in the material
[2] = molecular target: DNA polymerase beta WT (242Pro) (Homo sapiens, UniProt P06746 1-335); assay: as above

B1: 1-bp gapped DNA (dsDNA)
DNA 1: GCCTCGCAGCCGTCCAACCAAC
DNA 2: CAACCTCGATCCAATGCCGTCC
DNA 3: GGACGGCATTGGATCGAGGTTGAGTTGGTTGGACGGCTGCGAGGC
modifications: 5' phosphate on downstream oligo (S8)
- Kd [1]: 5 nM
- Kd [2]: 5 nM
